The record followed here is US9074002B2, “PTP1B inhibitors” (Cold Spring Harbor Laboratory, priority 2009, dated 2015).

Common to all, as to type: cell-based
Test [1] has as its system phosphorylation of AKT activation loop at Threonine 308 (T308). Kind of test: AKT phosphorylation (T308) after insulin stimulation in cells overexpressing scFv45. As to conditions: cells overexpressing scFv45, insulin stimulated for different time periods; FIG. 13. The source says: Applicant assessed the role of PTP1B-OX specific intrabody on the downstream readout of insulin signaling by following the phosphorylation (activation) status of AKT.

For test [2], the target named is T1, endogenous PTP1B under reducing conditions (Homo sapiens, UniProt P18031).
T1 construct: endogenous in cells; host or cells: 293T cells (transfected only with the scFv intrabody)
T1 sequence (P18031 1-435): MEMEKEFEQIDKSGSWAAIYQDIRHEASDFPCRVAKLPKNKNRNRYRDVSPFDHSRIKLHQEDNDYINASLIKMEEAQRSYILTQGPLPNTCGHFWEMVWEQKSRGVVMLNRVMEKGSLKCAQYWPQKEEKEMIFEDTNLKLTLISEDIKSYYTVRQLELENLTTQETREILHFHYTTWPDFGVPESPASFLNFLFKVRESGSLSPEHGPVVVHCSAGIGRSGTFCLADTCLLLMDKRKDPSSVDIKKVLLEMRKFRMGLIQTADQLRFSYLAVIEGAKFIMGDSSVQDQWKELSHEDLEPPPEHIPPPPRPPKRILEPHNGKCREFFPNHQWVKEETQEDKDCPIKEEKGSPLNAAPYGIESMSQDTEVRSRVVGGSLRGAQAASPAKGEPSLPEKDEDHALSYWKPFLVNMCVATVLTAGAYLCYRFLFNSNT
Kind of test: Intrabody interaction in 293T cells under reducing condition (NAC, TCEP) (Ni-NTA pull down / immunoprecipitation). As to conditions: 20 mM NAC, lysis buffer with 2 mM TCEP, FIGS. 11, 12. As for the experimental part:
One of the positive candidate scFvs (scFv45) was cloned in pcDNA3.2/V5-GW/D-TOPO expression vector and transiently expressed in mammalian cells as stable intracellular antibody (aka intrabody) (FIG. 10). To detect PTP1B-OX and scFv45 interaction in mammalian cells, scFv45 was overexpressed in 293T cells as described herein (See Example 4) and 48 hours post transfection the cells were serum-starved for 16 hours in growth medium (DMEM, low glucose) without serum (FBS), then incubated with 1 mM H2O2 (in growth medium without serum) for 5 minutes at 37° C. or treated with 20 mM NAC (in growth medium without serum) for 1 hour at 37° C. Cells treated with H2O2 were washed twice with cold (4° C.) PBS and lysed in lysis buffer (25 mM HEPES, pH 7.4, 150 mM NaCl, 0.25% Deoxychloate, 1% TritonX-100, 25 mM NaF, 10 mM MgCl2, 1 mM EDTA, 10% Glycerol, 0.5 mM PMSF, 10 mM Benzamidine, protease inhibitor cocktail). Cells treated with NAC were lysed with lysis buffer containing 2 mM TCEP to ensure a post-lysis reducing environment. Interaction between PTP1B and intrabody45 were tested by pulling down the protein complex from 1 mg of total cell lysate with Ni-NTA agarose or by immunoprecipitating PTP with anti-PTP1B (FG6). For the pull down experiment, Ni-NTA agarose beads were incubated with the lysates (both oxidized and reduced) at 4° C. Protein complex bound to the Ni-NTA agarose beads was pulled down and washed three times; first with lysis buffer containing 20 mM imidazole followed by two more washes with wash buffer (PBS, pH 7.4, 20 mM imidazole, 0.05% BSA, 0.05% Tween-20 and protease inhibitors). Applicant used 20 mM imidazole in the wash buffer to reduce the non-specific binding of proteins with the Ni-NTA agarose beads. The complex was eluted with wash buffer containing 500 mM imidazole with gentle shaking at 4° C. and the eluate was mixed with SDS sample buffer with DTT. For the immunoprecipitation experiments, 1 mg of total cell lystates (both oxidized and reduced) was incubated with anti-PTP1B antibody (FG6) at 4° C. The interacting protein complex was immunoprecipitated after incubating the lysate-antibody mixture with protein A/G Sepharose at 4° C. After immunoprecipitation, Sepharose beads were washed three times; first with lysis buffer followed by two more washes with wash buffer (PBS, pH 7.4, 0.05% BSA, 0.05% Tween-20 and protease inhibitors). The Sepharose beads were then heated at 90° C. in 2×SDS sample buffer with DTT. Proteins from the pulled down or immunoprecipitated complex were separated by SDS-PAGE. PTP was detected with anti-PTP1B antibody (FG6) and the intrabodies were detected with anti-HA (3F10)-HRP antibody [anti-HA (3F10)-HRP, Roche] by immunoblotting.
In the initial in vitro phosphatase screening assay using reversibly oxidized (with H2O2) recombinant PTP1B, Applicant found four different PTP1B-OX specific scFvs (scFv45, scFv57, scFv64 and scFv106) from the initial pool of 12 different scFvs. […] Applicant has also shown that scFv45, expressed as an intrabody in mammalian cells, can bind to endogenous PTP1B-OX but not endogenous PTP under reducing conditions. Further assessment was carried out to identify additional PTP1B-OX-specific intrabodies. Additional scFvs have been subcloned in pcDNA3.2/V5-GW/D-TOPO mammalian expression vector (FIG. 10) from their respective phagemid constructs. […]

Test [3] has as its system tyrosine phosphorylation of insulin receptor β (IRβ) and insulin receptor substrate-1 (IRS-1) in 293T cells. Kind of test: Insulin signaling in 293T cells expressing intrabody: tyrosine phosphorylation of IRβ and IRS-1. From the text: In order to validate this approach further, Applicant tested the effects of expressing one of these (scFv45) as a single chain antibody fragment “intrabody” to PTP1B, using 293T cells as a convenient expression system. This intrabody was expressed transiently and then tested for effects on insulin signaling, focusing initially on the tyrosine phosphorylation status of the β-subunit of the insulin receptor and IRS-1 (FIG. 2). Initial indications are that for both substrates expression of the intrabody had no impact on the basal level of tyrosyl phosphorylation, but it enhanced and extended the time course of insulin-induced phosphorylation, consistent with our proposed mechanism of action.
Intrabody scFv45 was transfected in 293T cells, serum starved and insulin stimulated to investigate the physiological relevance of this intrabody expression in mammalian cells in the context of PTP1B mediated regulation of insulin signaling (or insulin signaling mediated redox regulation of PTP1B activity). Insulin stimulated 293T cells with or without the intrabody were harvested in RIPA buffer (25 mM HEPES, pH 7.5, 150 mM NaCl, 0.25% Deoxychloate, 10% Glycerol, 25 mM NaF, 10 mM MgCl2, 1 mM EDTA, 1% TritonX-100, 0.5 mM PMSF, 10 mM Benzamidine, protease inhibitor cocktail, 1 mM sodium vanadate) and the cell lysates were examined for total tyrosine phosphosphorylation pattern using phospho-tyrosine specific antibodies (FIGS. 3 and 4).

“Also recorded” adds a separate entry of the source.

B1: scFv45: conformation-sensor scFv binding PTP1B-OX, SEQ ID NO: 26 and 78; expressed as intrabody (protein)
scFv: MKKTAIAIAVALAGFATVAQAALTQPSSVSANPGGTVKITCSGSSSAYGYGWYQQKSPGSAPVTVIYNNNKRPSNIPSRFSGSKSGSTGTLTITGVQAEDEAVYFCGSEDSSTDAIFGAGTTLTVLGQSSRSSTVTLDESGGGLQAPGGALSLVCKASGFTFSSYDMGWIRQAPGKGLEYVAGITDNGRYASYGSAVDGRATISRDNGQSSVRLQLNNLRAEDTGTYYCARDDGSGWTGNSIDAWGHGTEVIVSSTSGQAGQHHHHHHGAYPYDVPDYAS
As for B1, the “AKT phosphorylation at residue Threonine 308 (T308)” value in test [1] was “enhanced and sustained AKT phosphorylation”. Besides, the “binding of intrabody to endogenous PTP1B under reducing conditions” value in test [2] is “not in the cells that were under reducing condition; also recorded: not in the presence of NAC and TCEP”. Further, the “basal level of tyrosyl phosphorylation of insulin receptor β-subunit and IRS-1” value in test [3] (293T cells expressing intrabody, no insulin) is recorded as “no impact”. The “tyrosine phosphorylation of insulin receptor β (IRβ)” value in test [3] (293T cells overexpressing intrabody, insulin stimulated, FIG. 3) is “increased and prolonged tyrosine phosphorylation”. In addition, the “tyrosine phosphorylation of insulin receptor substrate-1 (IRS-1)” value in test [3] (293T cells overexpressing intrabody, insulin stimulated, FIG. 4) is “increased and prolonged tyrosine phosphorylation”.
